Measurements as given in publication PMC6393540, “A dual role in regulation and toxicity for the disordered N-terminus of the toxin GraT”.

Target: Δ22GraT in Δ22GraT2A2 complex;GraA-His in Δ22GraT2A2 complex (Pseudomonas putida;Pseudomonas putida, UniProt Q88MI5;Q88MI6 23-92;1-99, del2-22|)
Test: ITC; macroscopic; ITC: 50 mM Tris pH 8.0, 250 mM NaCl, 2 mM β-mercaptoethanol (TCEP in purification for ITC), 25 °C; EMSA: 5 µM DNA, 30 min at room temperature, 6% native PAGE in TBE on ice
Conditions: protein: recombinant;recombinant; tags: ;C-terminal His6; chain copies: 2;2

B1: graTA operator wild type 33 bp (dsDNA)
DNA 1: AAATTAACGAATAACGTTAAGCATTCAGCTCAT
DNA 2: ATGAGCTGAATGCTTAACGTTATTCGTTAATTT
Q: B1 was tested. Which Ka did it give?
A: 2.3e+15 M^-2
